Assay results reported in the supplement of paper PMC12042874.
± gives the uncertainty stated by the source.

Assay: amyloid nucleation score (Sup35N fusion, yeast selection) (log enrichment); library NNK2; higher = more nucleation; inactive = no reads after selection
Summary of the method: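 In psi-negative yeast, Sup35N fusions carrying peptides of 20 random codons were induced with 100 μM copper sulfate for 24 hours. The cells then grew 7 days at 30°C on medium lacking adenine and uracil, and plasmid inserts from input and output were Illumina-sequenced, excluding sequences with under 100 input reads. Nucleation score is the DiMSum log enrichment of output over input reads, centred on the mode score of non-aggregating sequences.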

Substance	amyloid nucleation score
TVRLFFLG	3.98 ± 0.11
TVSMLLGRRCVRFRVMVRVG	4.79 ± 0.05
TVSYCVAYSMQQMLS	-0.072 ± 1.1
TVWDLPLVAFCKHGTDHLLS	-0.121 ± 1.1
TWGFYAVTCLQLLPRFVKHV	-0.374 ± 0.33
TWGYGRDVCVRSERSGWYLS	0.859 ± 0.28
TWKYDRMVGKIVGLALRVVT	0.643 ± 0.43
TWLSCPTLNHLVTNMPWY	-0.759 ± 0.39
TWLSLSLYPFSKSYSISAGF	-0.321 ± 1
TWRIYLTQRAVTSKMYLRAS	4.74 ± 0.07
TWWIELVKLGEMVVK	0.313 ± 0.65
TYCNRLRNRLMFFLYSPTTS	-0.587 ± 0.79
TYDLGCDYPIVPYVNFLCM	6.59 ± 0.072
TYGVVK	-0.047 ± 0.17
TYIFSHTAGYNFG	inactive
TYKAAICLGCS	6.548 ± 0.033
TYKMKNMGICIYRYARLGDC	0.372 ± 0.74
TYLFYWSLGQRCMIF	inactive
TYNKYK	-1.08 ± 0.78
TYQMWLDTE	-0.445 ± 0.39
TYRIQRIFLPLYRWLVLLLS	-0.285 ± 0.76
TYRLDSWITGSRLV	-0.555 ± 0.76
TYSGLKNARWEFWMKSFDYF	-1.12 ± 0.5
TYSSNASGVTVFR	-0.772 ± 0.63
TYSVLRHFRRES	0.589 ± 0.31
TYTMGRHNFVMSLSFFSHSA	4.861 ± 0.044

Substance	amyloid nucleation score
TYYSLSLVAIMGAR	1.82 ± 0.2
VANDLQPWLRAVHSCFWYSS	0.896 ± 0.17
VAVCMWTTNVCVI	7.804 ± 0.042
VAWTRCSLHWLQFVLCLSGE	5.92 ± 0.041
VAYVKACRTSGVHQLSTDHV	1.67 ± 0.34
VCFVICDSPSFYV	7.901 ± 0.044
VCGQILDYWFVYT	0.264 ± 0.23
VCLCCYYIYYERFSNGFFLL	5.02 ± 0.058
VCLMLS	-0.573 ± 1.1
VCSKHD	-0.78 ± 1.1
VCSTEV	0.32 ± 0.74
VCTLRVSDNNLEKKSVLYMR	3.97 ± 0.047
VCVFEARVFSKLFVY	inactive
VCWLLGSGFWAS	inactive
VDDFELMLYAMVVNGLELLD	-0.19 ± 1
VDFIKIKRIGPER	-0.709 ± 0.38
VDHQVFNHDHCGRIYVLCLG	-0.322 ± 0.31
VDICGTRGKRRYCSLRLFAW	-0.594 ± 1.1
VDIGENLEFCIVLSQ	-0.19 ± 0.55
VDILG	-0.094 ± 1
VDNCDLGIS	-0.861 ± 1.1
VDQRRVHLDERDY	-0.371 ± 0.63
VDTHSILASCLRVTKGVTDK	0.138 ± 1.1
VDVVFTSSSTSLCSLSWSGV	4.79 ± 0.099
VEARVHFPFWDLIEVSMYGY	-0.665 ± 0.49
VECIRSVLVFFVFWLRSIFA	-1.38 ± 0.55

Substance	amyloid nucleation score
VEFIVSWHGPAKRYPYATTL	0.629 ± 0.34
VEGRYAPKRSYVTPGWDV	-0.05 ± 0.55
VEGTIRKRFGVWKYVLAPWL	-0.267 ± 0.38
VENRMVVLRSSIAIWVSRTV	0.955 ± 0.34
VFAWRN	-0.347 ± 1.1
VFCGFDIVFCKRAFGSKIYL	-0.632 ± 1.1
VFCYRSDMSGTSSGGGYQM	-0.178 ± 0.29
VFDGVSSGTCHLCAAWSWDG	1.56 ± 0.14
VFDVHIYRPSVP	5.96 ± 0.069
VFEFVVDNHLNIRLTRGGFM	4.93 ± 0.084
VFFISEIRPKFFLTLPRTAL	4.87 ± 0.096
VFFWLQNFEVLWPMEARVWE	4.14 ± 0.096
VFINRFHRVMLRAVIRQGVV	0.31 ± 0.5
VFKLCTSPFSCLIGRMGGTD	9.172 ± 0.063
VFLKQVEPEGGQYETFLVVV	-0.19 ± 1.1
VFLYNIGFK	0.691 ± 0.38
VFNWLNRGEESWDVVLVV	inactive
VFSFRGLFGFIPMVPYWYAI	inactive
VFTSYFLLFICLGYCEFYGD	4.299 ± 0.042
VFWSVYFDACLVFMTVSYLL	inactive
VGAYPEEKR	-0.013 ± 0.38
VGGGTECVLSRQEFGCWLLW	0.649 ± 0.48
VGIRCLRFFNMIVLEG	-0.059 ± 0.55
VGIYDYVLRSC	0.115 ± 0.33
VGLGVRVEVLTMSFTILQSV	3.36 ± 0.078
VGLISERLVSMSTVA	0.4 ± 0.56

Substance	amyloid nucleation score
VGPVMINSSSVTQCTGWNRT	3.8 ± 0.091
VGPVNQRWGVTISLAPEVCF	0.553 ± 0.57
VGRGMHTSYFVGTHTWLSVC	4.83 ± 0.11
VGSKWLNGSRGKRLELRIGR	4.03 ± 0.12
VGTGLIIA	1.18 ± 0.47
VGTLNGFRRFGRSGKFNILE	-0.195 ± 0.27
VHHLDNYLQAN	-0.659 ± 0.34
VHLALTRCM	0.844 ± 0.32
VHPGTR	4.08 ± 0.065
VHRSSLASNGSLES	-0.398 ± 0.45
VHTMY	-0.299 ± 1.1
VHVCVVACFACFSANSEKGG	10.79 ± 0.042
VHWSWIAVAGHKDRAPGVRR	1.21 ± 0.3
VHYQLKSIRMDSM	0.484 ± 0.19
VICEIMYNKMCDTSLRSSLS	0.329 ± 0.65
VICRGVHSHSLGWGSCITCS	-0.98 ± 0.48
VIFAHGVFGECWFVYSLVFS	-0.784 ± 0.76
VIFCVLLVNNLDWRFWPSSK	4.928 ± 0.037
VIISCTYVNY	-0.002 ± 0.4
VIRRGMFIQPAFAKMLSAWF	-0.231 ± 1
VIRTPILGYWSCIGTFNVFW	8.167 ± 0.044
VIVSMVSE	inactive
VIYKSLHRLVISRVNVFFPV	-0.263 ± 0.65
VKFFSSVLSNDGFRSLGVCL	0.13 ± 1.1
VKMFVF	-0.221 ± 0.79
VKPHFRLGGNQNRPIPCSVS	0.318 ± 0.45

Substance	amyloid nucleation score
VKSMFLYTASSADPERGVYG	-1.27 ± 1.1
VKVVVNSSDNCVSIDWSYGR	2.14 ± 0.17
VKWISMCSILSYRRG	-1.08 ± 0.78
VKWTVHYNAVAKRIRLMIVY	0.437 ± 0.8
VLAAT	-0.815 ± 0.55
VLDINIFMISYCFHMHYDQV	5.49 ± 0.091
VLDSWRR	-0.963 ± 1.1
VLFCT	-1.29 ± 0.61
VLFNYKLITGSMFCTRHTRP	2.08 ± 0.11
VLFVTVPLSMVIMVSQT	-0.277 ± 1
VLGKFVEPGMAGLSVTPFRM	0.829 ± 0.57
VLGLSR	0.584 ± 0.51
VLGMYVFDRG	0.543 ± 0.46
VLGNSLELVGNRLDSI	4.11 ± 0.066
VLGVLQFVAFWNVVMWISPL	-0.659 ± 0.76
VLICFVSLRLKVGTLIPTTT	-0.37 ± 0.76
VLISSKYLIQSVDYILLNGP	-0.217 ± 0.29
VLKQLLFFS	4.357 ± 0.039
VLLGPSSYRLTYTMGRRRDG	0.685 ± 0.66
VLNERYSTLVVAPTRNASGL	inactive
VLPEWSLF	inactive
VLPRGD	0.125 ± 0.4
VLPRYN	0.471 ± 0.62
VLQDMYYKSVKKLQARSKDF	inactive
VLQRCRTAVKPYQHNNCLIM	2.26 ± 0.11
